The nature of this series: self-splicing fitness, log relative to wild type (ln ratio); higher = more splicing; Tetrahymena group I intron in knt gene, E. coli kanamycin selection, DiMSum; sequences stand for … in CUCUCU…GGAGGGAAAAGUUAUCAGGCAUGCACCUGGUAGCUAGUCUUUAAACCAAUAGAUUGCAUCGGUUUAAAAGGCAAGACCGUCAAAUUGCGGGAAAGGGGUCAACAGCCGUUCAGUACCAAGUCUCAGGGGAAACUUUGAGAUGGCCUUGCAAAGGGUAUGGUAAUAAGCUGACGGACAUGGUCCUAACCACGCAGCCAAGUCCUAAGUCAACAGAUCUUCUGUUGAUAUGGAUGCAGUUCACAGACUAAAUGUCGGUCGGGGAAGAUGUAUUCUUCUCAUAAGAUAUAGUCGGACCUCUCCUUAAUGGGAGCUAGCGGAUGAAGUGAUGCAACACUGGAGCCGCUGGGAACUAAUUUGUAUGCGAAAGUAUAUUGAUUAGUUUUGGAGUACUCGUGGUCG
The procedure, abridged: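 Fitness was computed with DiMSum as the error-weighted combination of replicate fold changes, kanamycin versus none, each normalised to wild type. The library randomised all eight intron nucleotides of the P1ex region, with the intron placed in the knt kanamycin-resistance gene on pET-22b(+) in E. coli BL21(DE3). Six replicate transformations were grown overnight at 37°C or 30°C on LB agar with or without 25 μg/mL kanamycin, plus 100 μg/mL carbenicillin, 50 μM IPTG and 0.2% rhamnose. Pooled colonies were amplicon-sequenced on an Illumina HiSeq 2500.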

± gives the uncertainty stated by the source.

As to UAAUAGCAAUAUUACGUAAA, the “self-splicing fitness (ln)” value by setting is: (30 °C) -3.19 ± 0.2; (37 °C) -1.88 ± 0.19.

Consider UAAUAGCAAUAUUACGUAUA, for which the “self-splicing fitness (ln)” value (30 °C) was -1.82 ± 0.17 and the “self-splicing fitness (ln)” value (37 °C) was -1.17 ± 0.17.

With UAAUAGCAAUAUUACGUCCA, the “self-splicing fitness (ln)” value was -0.695 ± 0.1 (30 °C) and -0.122 ± 0.11 (37 °C).

UAAUAGCAAUAUUACGUGAA: the “self-splicing fitness (ln)” value is, setting by setting: (30 °C) -1.38 ± 0.1; (37 °C) -1.22 ± 0.14.

Turning to UAAUAGCAAUAUUACGUGGC, the “self-splicing fitness (ln)” value reads like this: (30 °C) -3.76 ± 0.35; (37 °C) -2.88 ± 0.43.

Consider UAAUAGCAAUAUUACGUUAU, for which the “self-splicing fitness (ln)” value is -2.86 ± 0.21 (30 °C) and -1.44 ± 0.19 (37 °C).

For UAAUAGCAAUAUUACGUUGC, the “self-splicing fitness (ln)” value reads like this: (30 °C) -3.64 ± 0.23; (37 °C) -2.71 ± 0.31.

Consider UACAAGCAAUAUUACGAAUC, for which the “self-splicing fitness (ln)” value by setting is: (30 °C) -3.62 ± 0.17; (37 °C) -2.7 ± 0.22.

In the case of UACAAGCAAUAUUACGACCG, the “self-splicing fitness (ln)” value reads like this: (30 °C) -0.233 ± 0.096; (37 °C) 0.952 ± 0.13.

UACAAGCAAUAUUACGACCU: the “self-splicing fitness (ln)” value was -0.732 ± 0.068 (30 °C) and -0.688 ± 0.086 (37 °C).

For UACAAGCAAUAUUACGAGAA, the “self-splicing fitness (ln)” value runs as follows: (30 °C) -2.1 ± 0.29; (37 °C) -2.42 ± 0.33.

For the sequence UACAAGCAAUAUUACGAGCU, the “self-splicing fitness (ln)” value was -3.19 ± 0.12 (30 °C) and -1.58 ± 0.11 (37 °C).

As to UACAAGCAAUAUUACGAUCG, the “self-splicing fitness (ln)” value worked out at 0.00344 ± 0.082 (30 °C) and 0.983 ± 0.11 (37 °C).

In the case of UACAAGCAAUAUUACGCAAC, where the note is “37 °C”, the “self-splicing fitness (ln)” value was -2.36 ± 0.3.

For UACAAGCAAUAUUACGCAGU, the “self-splicing fitness (ln)” value is, setting by setting: (30 °C) -3.96 ± 0.27; (37 °C) -3.27 ± 0.21.

Consider UACAAGCAAUAUUACGCCAG, for which the “self-splicing fitness (ln)” value runs as follows: (30 °C) -1.5 ± 0.12; (37 °C) -1.81 ± 0.15.

In the case of UACAAGCAAUAUUACGCCGA, the “self-splicing fitness (ln)” value (30 °C) was -1.29 ± 0.1 and the “self-splicing fitness (ln)” value (37 °C) is -0.999 ± 0.11.

Consider UACAAGCAAUAUUACGCUAA, for which the “self-splicing fitness (ln)” value by setting is: (30 °C) -1.95 ± 0.11; (37 °C) -1.35 ± 0.11.

With UACAAGCAAUAUUACGCUUG, the “self-splicing fitness (ln)” value by setting is: (30 °C) -3.1 ± 0.23; (37 °C) -2.79 ± 0.41.

With UACAAGCAAUAUUACGGAAU, the “self-splicing fitness (ln)” value runs as follows: (30 °C) -3.62 ± 0.24; (37 °C) -2.44 ± 0.25.

On to UACAAGCAAUAUUACGGCAA, for which the “self-splicing fitness (ln)” value by setting is: (30 °C) -0.904 ± 0.072; (37 °C) -0.0888 ± 0.088.

Consider UACAAGCAAUAUUACGGCAC, for which the “self-splicing fitness (ln)” value is, setting by setting: (30 °C) -1.64 ± 0.14; (37 °C) -0.345 ± 0.2.

Regarding UACAAGCAAUAUUACGGGAC, the “self-splicing fitness (ln)” value runs as follows: (30 °C) -2.61 ± 0.16; (37 °C) -2.58 ± 0.17.

Consider UACAAGCAAUAUUACGGGCC, for which the “self-splicing fitness (ln)” value is -3.08 ± 0.23 (30 °C) and -2.55 ± 0.22 (37 °C).

Regarding UACAAGCAAUAUUACGUGAU, the “self-splicing fitness (ln)” value is, setting by setting: (30 °C) -3.16 ± 0.14; (37 °C) -1.34 ± 0.14.

As to UACAAGCAAUAUUACGUUAG, the “self-splicing fitness (ln)” value is -3.02 ± 0.11 (30 °C) and -2.11 ± 0.097 (37 °C).

Regarding UACAAGCAAUAUUACGUUGA, the “self-splicing fitness (ln)” value (30 °C) was -2.72 ± 0.17 and the “self-splicing fitness (ln)” value (37 °C) is -2.06 ± 0.15.

For the sequence UACAAGCAAUAUUACGUUGU, the “self-splicing fitness (ln)” value is, setting by setting: (30 °C) -3.58 ± 0.12; (37 °C) -2.99 ± 0.14.

In the case of UACCAGCAAUAUUACGAACC, the “self-splicing fitness (ln)” value is, setting by setting: (30 °C) -3.08 ± 0.2; (37 °C) -1.05 ± 0.23.

UACCAGCAAUAUUACGAAGC: the “self-splicing fitness (ln)” value (30 °C) is -3.64 ± 0.25 and the “self-splicing fitness (ln)” value (37 °C) is -2.17 ± 0.18.

Turning to UACCAGCAAUAUUACGAGCG, the “self-splicing fitness (ln)” value (30 °C) is -0.124 ± 0.06 and the “self-splicing fitness (ln)” value (37 °C) stood at 0.206 ± 0.075.

For the sequence UACCAGCAAUAUUACGAGGC, the “self-splicing fitness (ln)” value is -4.87 ± 0.26 (30 °C) and -2.23 ± 0.15 (37 °C).

Consider UACCAGCAAUAUUACGAUUU, for which the “self-splicing fitness (ln)” value was -1.25 ± 0.076 (30 °C) and -0.288 ± 0.075 (37 °C).

Regarding UACCAGCAAUAUUACGCACG, the “self-splicing fitness (ln)” value is, setting by setting: (30 °C) 0.061 ± 0.066; (37 °C) -0.903 ± 0.066.

As to UACCAGCAAUAUUACGCCAU, the “self-splicing fitness (ln)” value runs as follows: (30 °C) -3.27 ± 0.22; (37 °C) -2.85 ± 0.16.

In the case of UACCAGCAAUAUUACGCCGG, the “self-splicing fitness (ln)” value reads like this: (30 °C) -3.31 ± 0.22; (37 °C) -3.14 ± 0.37.

UACCAGCAAUAUUACGCUAU: the “self-splicing fitness (ln)” value is -2.45 ± 0.11 (30 °C) and -0.409 ± 0.089 (37 °C).

Values taken from the supplement of paper PMC7877785.
